This is an account of results in patent US20240124602A1.

The target of the experiment is canine CD20 (canine) (UniProt Q3C2E2). The experiment is described as follows: flow cytometry on canine PBMCs without 18F6 (control), FSC-H/SSC-H subset, Event Count 9100; FL1-H = 2o FITC alone, FL2-H = CD21-PE. A general note: A flow cytometer gives signals particle by particle.
Chain of UniProt Q3C2E2 (Q3C2E2 whole entry): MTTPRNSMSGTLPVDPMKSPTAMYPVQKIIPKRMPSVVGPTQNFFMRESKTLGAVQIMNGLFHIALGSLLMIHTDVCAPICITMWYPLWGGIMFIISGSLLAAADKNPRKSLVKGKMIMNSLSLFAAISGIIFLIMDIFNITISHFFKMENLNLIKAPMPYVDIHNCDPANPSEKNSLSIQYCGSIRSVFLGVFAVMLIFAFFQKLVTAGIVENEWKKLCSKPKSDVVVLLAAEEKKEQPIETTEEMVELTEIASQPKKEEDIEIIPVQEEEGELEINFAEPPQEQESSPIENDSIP

Consider 2o FITC (antibody), for which the quadrant number, lower left (FL1-H low, FL2-H low); unit not given turned out to be 72.5; the quadrant number, lower right (FL1-H low, FL2-H high); unit not given worked out at 22.9; the quadrant number, upper left (FL1-H high, FL2-H low); unit not given worked out at 2.18; the quadrant number, upper right (FL1-H high, FL2-H high); unit not given amounted to 2.37.
